# From the Human Domainome abundance scans (Beltran et al. 2025)
# ± gives the uncertainty stated by the source.
# B1: Steroid hormone receptor ERR2, residues 100 to 176; numbered along this chain, O95718 (parent)
# chain: KRLCLVCGDIASGYHYGVASCEACKAFFKRTIQGNIEYSCPATNECEITKRRRKSCQACRFMKCLKVGMLKEGVRLD
# Variants of: B1
# Assay: abundance fitness (aPCA) (normalised: wild type 0, dead -1); higher = more abundant; growth selection in yeast, the domain comes from the species named
# Conditions: Homo sapiens
row,Variant,abundance fitness
1,KRLCLVCGDIASGYHYGVTSCEACKAFFKRTIQGNIEYSCPATNECEITKRRRKSCQACRFMKCLKVGMLKEGVRLD [A19T],-0.085 ± 0.056
2,KRLCLVCGDIASGYHYGVFSCEACKAFFKRTIQGNIEYSCPATNECEITKRRRKSCQACRFMKCLKVGMLKEGVRLD [A19F],-0.326 ± 0.14
3,KRLCLVCGDIASGYHYGVKSCEACKAFFKRTIQGNIEYSCPATNECEITKRRRKSCQACRFMKCLKVGMLKEGVRLD [A19K],-0.135 ± 0.055
4,KRLCLVCGDIASGYHYGVYSCEACKAFFKRTIQGNIEYSCPATNECEITKRRRKSCQACRFMKCLKVGMLKEGVRLD [A19Y],-0.223 ± 0.092
5,KRLCLVCGDIASGYHYGVSSCEACKAFFKRTIQGNIEYSCPATNECEITKRRRKSCQACRFMKCLKVGMLKEGVRLD [A19S],0.049 ± 0.045
6,KRLCLVCGDIASGYHYGVESCEACKAFFKRTIQGNIEYSCPATNECEITKRRRKSCQACRFMKCLKVGMLKEGVRLD [A19E],0.043 ± 0.05
7,KRLCLVCGDIASGYHYGVLSCEACKAFFKRTIQGNIEYSCPATNECEITKRRRKSCQACRFMKCLKVGMLKEGVRLD [A19L],-0.046 ± 0.041
8,KRLCLVCGDIASGYHYGVRSCEACKAFFKRTIQGNIEYSCPATNECEITKRRRKSCQACRFMKCLKVGMLKEGVRLD [A19R],-0.331 ± 0.041
9,KRLCLVCGDIASGYHYGVQSCEACKAFFKRTIQGNIEYSCPATNECEITKRRRKSCQACRFMKCLKVGMLKEGVRLD [A19Q],-0.113 ± 0.057
10,KRLCLVCGDIASGYHYGVVSCEACKAFFKRTIQGNIEYSCPATNECEITKRRRKSCQACRFMKCLKVGMLKEGVRLD [A19V],0.035 ± 0.038
11,KRLCLVCGDIASGYHYGVPSCEACKAFFKRTIQGNIEYSCPATNECEITKRRRKSCQACRFMKCLKVGMLKEGVRLD [A19P],-0.065 ± 0.074
12,KRLCLVCGDIASGYHYGVWSCEACKAFFKRTIQGNIEYSCPATNECEITKRRRKSCQACRFMKCLKVGMLKEGVRLD [A19W],-0.307 ± 0.057
13,KRLCLVCGDIASGYHYGVDSCEACKAFFKRTIQGNIEYSCPATNECEITKRRRKSCQACRFMKCLKVGMLKEGVRLD [A19D],0.046 ± 0.067
14,KRLCLVCGDIASGYHYGVISCEACKAFFKRTIQGNIEYSCPATNECEITKRRRKSCQACRFMKCLKVGMLKEGVRLD [A19I],-0.464 ± 0.14
15,KRLCLVCGDIASGYHYGVNSCEACKAFFKRTIQGNIEYSCPATNECEITKRRRKSCQACRFMKCLKVGMLKEGVRLD [A19N],0.005 ± 0.085
16,KRLCLVCGDIASGYHYGVMSCEACKAFFKRTIQGNIEYSCPATNECEITKRRRKSCQACRFMKCLKVGMLKEGVRLD [A19M],-0.117 ± 0.055
17,KRLCLVCGDIASGYHYGVCSCEACKAFFKRTIQGNIEYSCPATNECEITKRRRKSCQACRFMKCLKVGMLKEGVRLD [A19C],-0.41 ± 0.1
18,KRLCLVCGDIASGYHYGVAYCEACKAFFKRTIQGNIEYSCPATNECEITKRRRKSCQACRFMKCLKVGMLKEGVRLD [S20Y],-0.109 ± 0.12
19,KRLCLVCGDIASGYHYGVAICEACKAFFKRTIQGNIEYSCPATNECEITKRRRKSCQACRFMKCLKVGMLKEGVRLD [S20I],0.26 ± 0.075
20,KRLCLVCGDIASGYHYGVACCEACKAFFKRTIQGNIEYSCPATNECEITKRRRKSCQACRFMKCLKVGMLKEGVRLD [S20C],0.414 ± 0.047
21,KRLCLVCGDIASGYHYGVADCEACKAFFKRTIQGNIEYSCPATNECEITKRRRKSCQACRFMKCLKVGMLKEGVRLD [S20D],-0.218 ± 0.094
22,KRLCLVCGDIASGYHYGVARCEACKAFFKRTIQGNIEYSCPATNECEITKRRRKSCQACRFMKCLKVGMLKEGVRLD [S20R],-0.381 ± 0.048
23,KRLCLVCGDIASGYHYGVALCEACKAFFKRTIQGNIEYSCPATNECEITKRRRKSCQACRFMKCLKVGMLKEGVRLD [S20L],-0.185 ± 0.048
24,KRLCLVCGDIASGYHYGVAFCEACKAFFKRTIQGNIEYSCPATNECEITKRRRKSCQACRFMKCLKVGMLKEGVRLD [S20F],-0.485 ± 0.12

row,Variant,abundance fitness
1,KRLCLVCGDIASGYHYGVATCEACKAFFKRTIQGNIEYSCPATNECEITKRRRKSCQACRFMKCLKVGMLKEGVRLD [S20T],0.346 ± 0.047
2,KRLCLVCGDIASGYHYGVAVCEACKAFFKRTIQGNIEYSCPATNECEITKRRRKSCQACRFMKCLKVGMLKEGVRLD [S20V],0.34 ± 0.039
3,KRLCLVCGDIASGYHYGVAGCEACKAFFKRTIQGNIEYSCPATNECEITKRRRKSCQACRFMKCLKVGMLKEGVRLD [S20G],0.282 ± 0.032
4,KRLCLVCGDIASGYHYGVAKCEACKAFFKRTIQGNIEYSCPATNECEITKRRRKSCQACRFMKCLKVGMLKEGVRLD [S20K],-0.218 ± 0.059
5,KRLCLVCGDIASGYHYGVANCEACKAFFKRTIQGNIEYSCPATNECEITKRRRKSCQACRFMKCLKVGMLKEGVRLD [S20N],0.131 ± 0.077
6,KRLCLVCGDIASGYHYGVAECEACKAFFKRTIQGNIEYSCPATNECEITKRRRKSCQACRFMKCLKVGMLKEGVRLD [S20E],-0.232 ± 0.051
7,KRLCLVCGDIASGYHYGVAACEACKAFFKRTIQGNIEYSCPATNECEITKRRRKSCQACRFMKCLKVGMLKEGVRLD [S20A],0.353 ± 0.038
8,KRLCLVCGDIASGYHYGVAQCEACKAFFKRTIQGNIEYSCPATNECEITKRRRKSCQACRFMKCLKVGMLKEGVRLD [S20Q],-0.007 ± 0.055
9,KRLCLVCGDIASGYHYGVAWCEACKAFFKRTIQGNIEYSCPATNECEITKRRRKSCQACRFMKCLKVGMLKEGVRLD [S20W],-0.052 ± 0.047
10,KRLCLVCGDIASGYHYGVAPCEACKAFFKRTIQGNIEYSCPATNECEITKRRRKSCQACRFMKCLKVGMLKEGVRLD [S20P],-0.321 ± 0.079
11,KRLCLVCGDIASGYHYGVAMCEACKAFFKRTIQGNIEYSCPATNECEITKRRRKSCQACRFMKCLKVGMLKEGVRLD [S20M],-0.322 ± 0.066
12,KRLCLVCGDIASGYHYGVASYEACKAFFKRTIQGNIEYSCPATNECEITKRRRKSCQACRFMKCLKVGMLKEGVRLD [C21Y],-0.89 ± 0.41
13,KRLCLVCGDIASGYHYGVASSEACKAFFKRTIQGNIEYSCPATNECEITKRRRKSCQACRFMKCLKVGMLKEGVRLD [C21S],-0.532 ± 0.077
14,KRLCLVCGDIASGYHYGVASKEACKAFFKRTIQGNIEYSCPATNECEITKRRRKSCQACRFMKCLKVGMLKEGVRLD [C21K],-0.679 ± 0.11
15,KRLCLVCGDIASGYHYGVASTEACKAFFKRTIQGNIEYSCPATNECEITKRRRKSCQACRFMKCLKVGMLKEGVRLD [C21T],-0.871 ± 0.14
16,KRLCLVCGDIASGYHYGVASLEACKAFFKRTIQGNIEYSCPATNECEITKRRRKSCQACRFMKCLKVGMLKEGVRLD [C21L],-0.625 ± 0.076
17,KRLCLVCGDIASGYHYGVASQEACKAFFKRTIQGNIEYSCPATNECEITKRRRKSCQACRFMKCLKVGMLKEGVRLD [C21Q],-1.01 ± 0.19
18,KRLCLVCGDIASGYHYGVASGEACKAFFKRTIQGNIEYSCPATNECEITKRRRKSCQACRFMKCLKVGMLKEGVRLD [C21G],-0.866 ± 0.078
19,KRLCLVCGDIASGYHYGVASNEACKAFFKRTIQGNIEYSCPATNECEITKRRRKSCQACRFMKCLKVGMLKEGVRLD [C21N],-1 ± 0.38
20,KRLCLVCGDIASGYHYGVASFEACKAFFKRTIQGNIEYSCPATNECEITKRRRKSCQACRFMKCLKVGMLKEGVRLD [C21F],-1.04 ± 0.37
21,KRLCLVCGDIASGYHYGVASMEACKAFFKRTIQGNIEYSCPATNECEITKRRRKSCQACRFMKCLKVGMLKEGVRLD [C21M],-0.961 ± 0.15
22,KRLCLVCGDIASGYHYGVASDEACKAFFKRTIQGNIEYSCPATNECEITKRRRKSCQACRFMKCLKVGMLKEGVRLD [C21D],-0.518 ± 0.3
23,KRLCLVCGDIASGYHYGVASEEACKAFFKRTIQGNIEYSCPATNECEITKRRRKSCQACRFMKCLKVGMLKEGVRLD [C21E],-0.814 ± 0.11
24,KRLCLVCGDIASGYHYGVASWEACKAFFKRTIQGNIEYSCPATNECEITKRRRKSCQACRFMKCLKVGMLKEGVRLD [C21W],-0.94 ± 0.15

row,Variant,abundance fitness
1,KRLCLVCGDIASGYHYGVASIEACKAFFKRTIQGNIEYSCPATNECEITKRRRKSCQACRFMKCLKVGMLKEGVRLD [C21I],-0.693 ± 0.14
2,KRLCLVCGDIASGYHYGVASREACKAFFKRTIQGNIEYSCPATNECEITKRRRKSCQACRFMKCLKVGMLKEGVRLD [C21R],-0.761 ± 0.075
3,KRLCLVCGDIASGYHYGVASVEACKAFFKRTIQGNIEYSCPATNECEITKRRRKSCQACRFMKCLKVGMLKEGVRLD [C21V],-0.818 ± 0.09
4,KRLCLVCGDIASGYHYGLASCEACKAFFKRTIQGNIEYSCPATNECEITKRRRKSCQACRFMKCLKVGMLKEGVRLD [V18L],-0.613 ± 0.071
5,KRLCLVCGDIASGYHYGCASCEACKAFFKRTIQGNIEYSCPATNECEITKRRRKSCQACRFMKCLKVGMLKEGVRLD [V18C],-0.169 ± 0.076
6,KRLCLVCGDIASGYHYGRASCEACKAFFKRTIQGNIEYSCPATNECEITKRRRKSCQACRFMKCLKVGMLKEGVRLD [V18R],-0.384 ± 0.07
7,KRLCLVCGDIASGYHYGDASCEACKAFFKRTIQGNIEYSCPATNECEITKRRRKSCQACRFMKCLKVGMLKEGVRLD [V18D],-0.471 ± 0.18
8,KRLCLVCGDIASGYHYGFASCEACKAFFKRTIQGNIEYSCPATNECEITKRRRKSCQACRFMKCLKVGMLKEGVRLD [V18F],-0.428 ± 0.089
9,KRLCLVCGDIASGYHYGYASCEACKAFFKRTIQGNIEYSCPATNECEITKRRRKSCQACRFMKCLKVGMLKEGVRLD [V18Y],-0.663 ± 0.14
10,KRLCLVCGDIASGYHYGPASCEACKAFFKRTIQGNIEYSCPATNECEITKRRRKSCQACRFMKCLKVGMLKEGVRLD [V18P],-0.331 ± 0.078
11,KRLCLVCGDIASGYHYGGASCEACKAFFKRTIQGNIEYSCPATNECEITKRRRKSCQACRFMKCLKVGMLKEGVRLD [V18G],-0.259 ± 0.066
12,KRLCLVCGDIASGYHYGAASCEACKAFFKRTIQGNIEYSCPATNECEITKRRRKSCQACRFMKCLKVGMLKEGVRLD [V18A],-0.26 ± 0.072
13,KRLCLVCGDIASGYHYGEASCEACKAFFKRTIQGNIEYSCPATNECEITKRRRKSCQACRFMKCLKVGMLKEGVRLD [V18E],-0.399 ± 0.14
14,KRLCLVCGDIASGYHYGMASCEACKAFFKRTIQGNIEYSCPATNECEITKRRRKSCQACRFMKCLKVGMLKEGVRLD [V18M],0.218 ± 0.42
15,KRLCLVCGDIASGYHYGHASCEACKAFFKRTIQGNIEYSCPATNECEITKRRRKSCQACRFMKCLKVGMLKEGVRLD [V18H],-0.245 ± 0.1
16,KRLCLVCGDIASGYHYGWASCEACKAFFKRTIQGNIEYSCPATNECEITKRRRKSCQACRFMKCLKVGMLKEGVRLD [V18W],-0.657 ± 0.094
17,KRLCLVCGDIASGYHYGQASCEACKAFFKRTIQGNIEYSCPATNECEITKRRRKSCQACRFMKCLKVGMLKEGVRLD [V18Q],-0.375 ± 0.089
18,KRLCLVCGDIASGYHYGVASCAACKAFFKRTIQGNIEYSCPATNECEITKRRRKSCQACRFMKCLKVGMLKEGVRLD [E22A],0.012 ± 0.046
19,KRLCLVCGDIASGYHYRVASCEACKAFFKRTIQGNIEYSCPATNECEITKRRRKSCQACRFMKCLKVGMLKEGVRLD [G17R],-0.495 ± 0.055
20,KRLCLVCGDIASGYHYWVASCEACKAFFKRTIQGNIEYSCPATNECEITKRRRKSCQACRFMKCLKVGMLKEGVRLD [G17W],-0.359 ± 0.075
21,KRLCLVCGDIASGYHYTVASCEACKAFFKRTIQGNIEYSCPATNECEITKRRRKSCQACRFMKCLKVGMLKEGVRLD [G17T],-0.337 ± 0.078
22,KRLCLVCGDIASGYHYVVASCEACKAFFKRTIQGNIEYSCPATNECEITKRRRKSCQACRFMKCLKVGMLKEGVRLD [G17V],-0.413 ± 0.055
23,KRLCLVCGDIASGYHYSVASCEACKAFFKRTIQGNIEYSCPATNECEITKRRRKSCQACRFMKCLKVGMLKEGVRLD [G17S],-0.266 ± 0.056
